From the DeepSol protein solubility set

Assay: soluble on expression in E. coli; label from the status in PepcDB or PDB records

Sequence	soluble on expression in E. coli
MAHHHHHHMQPMVLPYVDRKPPISKVMDARVLVWRESERMLRNGEGAAECSYAQKLQVLRSQQLADARKYMDTSAAMRSVKPVLATSSVDADDDDEFCRKRSRESEGPSVDEIRRFEGKLGETLALELTLWSLRRGSHGGVRSQRYTTALHALQDTQKLLRKTLQQMEEINALRFLEQQQFLKVNSEKARLLHVRLRNVRALENILRGNGKRRGSTLLATLE	not soluble
MAHHHHHHMQQENRHLSSADLFKKFTLQNVAQIANISNKEQSQIRGELTEQYPLLADFWEDIMPKKADIMLVRCHDQVHCVTLVSSQPEVLFFRHHNSPYIPHLKLLHKYPFILPRQQVDIGGCKYVVSGANVMCPGLTSEGGYITPGLAAGAIVAIHVEQKEHAIAVGRMLMSSEEIERVNNGPGIENIHHLGDGLWMNRVLSSSHIGAR	soluble
MAHHHHHHMQRDADRMKRKKEEHRDEEEFGAFRFADGSMYEGKFCRRESNADGTAKSQFPSAHPPTTRNAQQQELPPPIPFHHGKGVFKDAGGLVYDGCWVEGDMTGEGLLRFPSGATYEGSMYANSFWGTGTYTWPDGSRYEGQWENNKMHGKGTYIDAKGKRWAGKFHHGQGVGLLAEVSL	soluble
MAHHHHHHMQRHSRRGLLKYLSGVRVEYGGSAAKLLDSYLHQDAGAKHAANLPVSQRYFYIKNRNNDASLSSATGASQQHQTVQLRLGAAQMLSSSQHTSIDNLNEAHPLYYAQTSPSAAGLAAPLVLALKRLRIRQLTALQGALVPLLLKGKHVIAHSETGTGKSFGIALALANRIIRDQLNYRLHTVVLVPTEELALQYDKWLRHFGGCTSQVVQVAIDSIPLEAQLAKLHNIQPHVLVGTPQRVAEIVRLSPSILGEKLRRKVDCVVLDEADMIIHANVVYGRQQLSGANLVDRLFRNRREEVPAQLVAASATVDGVTAQTLNTWTRNDRTVRLTTSFVEHTIPPTIQFYFFGASRAYPLERCLLLSLQLICTQRPDARILIFTEDERVAEVCTLLTSAEVEGEMRRIAPGALSSTKVFAGALHALPRSIPSADNKESHGPDNPVSHRRVPLTTATQQAAPFSAIRGSGNVYEDVRAHQVIRQHGDVYVKNNSSLSRLNEGKLVVGVGSFNSSRGLHVNGITHVILYGACPSAACFVHCAGRTGRMGAEGDVLVLYPPSSGRQVQQVCSSLEVPFHSSRMSAVEDLLRSGEARTTESAAGAVTESASGAAADNT	not soluble
MAHHHHHHMQSSISQEKLQLMQKNFNLVDLNKDGKIAAEEFKTLLRLLGQTKTEKEMDEMVDKHFEDAPIGEEQQQDAAEAADKGGANEGTPSTAKQLGGQ	soluble
MAHHHHHHMQSTGGLPFYGNLYAGRVDSQNYVPPRQGGSGLLEVDKSLWDNPATRQKLQSCPYFALSDQVMFHNMDPVYLDPGLLSPEEHQLLLLFSRAYYEKWSVIHRRPPHALPRLRITYGSSKLLDEILFLLDVHPDVCEVLKKEYAVDDSTLIGMNPNLWSSAYLDPANMDHLSGRVLEFAGVPEPKRTKFFLLLDQMRRIKVHRRDLPNSEERVDVVPFCYGVTLYDFCKFLGITPYSGQLKVYDYVDLQGTARSETLKDEDSYFDYLVALFYRADVRSATLTDLADASDHTCRYTVTVEPFTTADRRVGRWF	soluble
MAHHHHHHMQTGPFAAVTRVPDHVRNMILNEIASENIWLFDRGRCEAVTVGDMRSSSFSIPMAESPPAVGCELDNNEHLLLYDLMRVRNGQVMFENDHFSRIRQNCILTAPTACDAANVSEDEDLGKLSTYIEGVRSTTRDFIKCNPWENGDVNLKFVTWVLPSQLSDVSTAERRSELLRTLSYAVYYVTSFFPPEDWYEEGTRYAMLYDAQRHTPNAKILQVPLRERAKALQQTTNAFEVLLVSDNRRHYLVPEGSRSNYLIVSGDESLLCSLEEDILVGITLRVARRAAACARLPPLRHRKLVLGDICLAKSIAMLGTSPGVLPIKEIQVFYDEESKQNFLLAMEDYMQDKDEEIQRAVINVRGRILNDDGLLRLESPSCDTLKRLRAAYEAEALL	not soluble
MAHHHHHHMRANPIERRKERETALSVRQRELEELRQRKAQLGEELGMELSALEGDNLAAAFPVIQYCGSRPKKDAKKIPVESLGSVMNQFEIAIKAISQNNRDIEQQITDLNRTIGVEAQRFTKLKRHSKELADATGVSLDPNAVQHLAGKSRDGEDCSGGLKELEETTVVLEERKALVEKEIRAARQLVKKKEEAVLAMSSALESRQEEIDQLNRLYNDIRVVDRDIKCEKETLREIISEHDIVDTKLNEAIERNVSRTRLLIEQGINEIKTEIADSVSVSRRGQERVMKAQEFRIDQLEKRLDCINKALKNNHLTRDVEAIVSHKWAAAGDALVAATPDESMYDIEAIIPPQERCHPAIYNLLLTEKERLARRISLLGIIAKEKKEVIDALACKAEALARECQQAIQELDHVASAAAYEEEMQRVEAMEYIQKQRLHYSDLFKEMWKLKTKNQGPLWRAY	not soluble
MAHHHHHHMRCFTPRLSAAGNGVWRGFRQMYEEYALWRDRRDDERYAAVSEEGEEGITLSNRRICANPNACPRSVLLVPADCIVEAFRRERRGGVTADAVMFDLTCCRGSRGEARDNILRFLQAEEKGEKRGEDISEGQCSHADERGRYLIRVNSPEFDSANGFLDMELAALLGERIEGVLLPAVTVNTYSLVEEYIHPSHHLWALFDTPLSVVQASEICRQGHYRYAVMGSRRLAEDLHLPIGGVTYGDTYRGENNSENATPAALLGSLPLLNSSLQVLLAARAFNMNILDDAFEDASDTAGFSRDLHLSRSLGFEGKLVINPAQLASCHAAFAPSAEELSWARGVQQRMARRYATEESAGKLEAAQWRRAACLLERHREAELQGAAPTQRGGGGGVE	not soluble
MAHHHHHHMRNVLFNGPMIPEIDAGYNVQVNGVSVNFLKDPFCFRNVVIENAYYKNKLLYKNFNDDNVNKNITNHIKRENIVELDKEFNECIKDSLNNNHVHIKKNEPDYKLNDIKSPIYKERTKYTPKIIEVIKTNYNVPHDERVKIHKENLMYMNNIEYKKANEIVEKVILTIKNETIQKPVELANDEPNNILKPNNIFKKMLL	not soluble
MAHHHHHHMRRALHAAALPSRAPLTPQRYKSYVLKFLRGQLPHDLKDCAGALGCLYGTLPDVDEYRQFVVPLQVLQQYHQLGYAKLPRPVLDPPQVDILADEVNQLANNVEHHPKSEHLYATSLADLTGGPLFYCQGQWRCAWGMHDLVYLPTLTVAASQALGNRLVRLWYDEAFMKEARTGPCVPWQQNYVRWQHTTPVNHVSIMIALDTLNKDRGAPCLIPGSHRWREGQLLPPVPYDPTQSETQQLNTIWDITNDDEQEMLADTPPATVDLRRGEALLIHPKTLFATHGNRSLDAARCCCVHYMGEATCAVQDGPLLPHTTRFRAGTRVSGPFFPVVFDPAMTEDLLMLDNKEGGAAA	not soluble
MAHHHHHHMSDLDKIRSKLEALKSKTEVKTDERIEIAKKNDPFNDLKVHILNVLDETRKCIREKESLQNVHGNNIEVIKRGNIIYNNMKNLDTYFLKLEEILKKQEKKKYAYSREELFDKNETFELLKRQIYECKKLSNYEHIKDTCVMDFSDFKNKQQVESKS	soluble
MAHHHHHHMSGRLRLYKEKLEGYNRFYSIVKTIKMVTMAKFRQAQVRIKTRDYTLRYTEKAFSKPGQLVGDSPQAKAIYIPVMTNRGSCGALNSNVVKVIDSVASSRAYLMPLGKRGIESLSKLYPSSFRMGIVNDMHEPMHFAYATYVWENAQQLCPEADRVHVIFHRCVSAGSQKQCYYNIPSYEKWREDLADASSTENQKSRYLFANTLLNEDEQMIRDFYDFHATLAILNAVCENELSEQAARLVAVEGQLSNISTLQQKTSSLYNKTRQSSITSSLIEIISAMTSLEGNAAKGVQRTNFWEGARMK	not soluble
MAHHHHHHMSHPKMKLVRRARKSIRERRMKACLKDLSSNLEKVEMRVFRQQKQKRQQQQRKGAGNHITVPPDVLRGVMNPELYHIECRLHQEACMPPPPPYEGYSQRERCDGARRRIGFVEFVTIAEMVRLGAMPGTPARVGI	not soluble
MAHHHHHHMSSCKDSLSLMAMWGSIARFDPKHERSFEGPEKRLEVIMRVVDGTHVSGLLAHDDDVWQKVIDAICAHIVSREFNEYIRSYVLSESSLFVMKDRVILITCGTITLLNCVPLICEAVSTVCGEVEWVSFMHKNYSFPWEQKGPHLSMAEEFKTLRSHFPSGQPFIFGPIDSDHYFLYFHSDVVQPSCSDDAQLSMTMYGLDRNQTKHWYSDKMLPTGPETAVIREATGLSEVVDDSWILHDLQYEPCGYSINAIRGSEYQTIHITPEEHCSFASYETNTCALNYSKCICGVLRVFDPERFSVIVFIDPDSAVGKSYHSGGTIGVEPEYYPNYEAHHRTVNEYTPGHWVLKVNYVKRAVGTVGTSAASGAKE	not soluble
MAHHHHHHMSSETPRASTHDVFCAALQMLGGAQIFAQPLIQRTAVASLSPRSRNGNQASAVIAESATSRDAGTNHLPDPGIDVDAKPVDKPCCRGEQPCERTGTAPVKAMVTLCDPPARCEGVLAAQNAQRRLHHLRFFGGRFFLADGVTASESQQTSGYASTATSNAHVSDDCSSTWELKASYFQAMKETLTAVMGRRLRSQLLCDDSTADTGTVLRAPVPRGATGASTMTTSARQAALRRRMEAFTSAVVHQESILDAVAAACRARLNTVGGATAAPTPCFFFSALPQISVRQWAGSHLYKHWLVRCGTPRASLPSTATNPQKSGPHGAPMLTSPSAPRAPATALVLPLDVEAELRKYWKLHDEAAARARLEALRCNDAQAFAEHVSLLKVSALLEIMEKTEGFMRRIGLRLQFHATQAAANRGGDGARAVPTTRAAPAALAEPGIADRPGGAAGCHGSEYERFRSYVASTKNEFKLMHRVDVFVAAQPAGLDATLLPHQMDGLRFLASLDANHINGILADEMGVGKTIQTLAFLLYLKNRRGETGETGEGSGGRVAPPRVGSRLPHLVLAPLSVVREWREACEQFVPSALHVAMYQELADPVHEAAAYDLVLLPVHAIRYVGAEAARIQWHYIVVDEAHKAVANLSTITAQRILRPLVFAPPGADWNAAQQRLAGALVAAALSESGGVHRQ	not soluble
MAHHHHHHMSSPFFGEQRKTRHNRSCSSCDSLPRYAASPPCHPQYAKVDRAAPSVSSPTFSSVPPSPKFPALCMHAMSHTNSTVPSSKLPFSNSVTGNGAALIGTLASFDSEAPRGRPASVAEDGAASGSSSGLSRAAVLMSGRGDASPPFSPQPSGSVLAVFCPLTSKAWQSGTLRDGIAFDVDTTSKVSTISPQTGLQSPLLFSSGWSQQSVSAAAQGTPPSFMGTPGQSLISAGAEGDDAEDTPHSCGAMYSPNHSVSLLPAPKVFVSVYPVQSPEPFATKFTGSPVFEVSLTTPPSIRAPQTGAARGAGATPAPSSRLPSESLEQYSLLRSPILHSLTPLSISPSAPLSPGFGCITGTEPMQSRLSRHRLATSAGSEQLPVRTSNDMRSRNAAVASPPPAAVPSVNSNHESLSDRLVSPARRSYRCPLPSSNEASLSSFFAVDDAGLHANLSMTQASEEDAAHRAASATLPRVCSSKDTEAEEGVAAALAPDTTDDPFEAFWDISPAAQWGGSVTEMLPRITTSSAPFETGSASRSVTAFASGTHEKDSHSSEEFNQNNRLSCVSMERHRNTILHRPSAAQQRNTILHRPSVVQQRNSVNRSVDTQRTTSKTMTLQQRQRRFSLQQEDSIEIKRRSYA	not soluble
MAHHHHHHMSSSVVIVGDSICGGDGDQKLSTSHDEVYLRGFNTFAGNNPSDRALLHEGAGEVVAAISGHIEVTERVISVKGLLPRYQPEIGDVVVGRIVEVSGNKWHVDVNSTQTAIMLLSSVTEPGGILRRRGRGDELGMRQIFDQDDLVAAEVQRISPDGVMSLHTRAADKYGRLSGLGILVSVRPSLVKRAKHQFVELADYSTQLIIGMNGNIWICSVQPSTSDAEETEHATDARQNVARVANCIKALGAAQVQIHPASIEASVAASLDAGLSVFDVSLPKNRDALVARVADMVGMQHRRPTGGGACARTLV	not soluble
